# In patent EP4722251:
# How the values were obtained:
# Human TFPI/His = test: ELISA; fit not_stated; antibody as IgG; antigen as monomer; on the surface: target; avidity possible
# [1] = target: Recombinant human TFPI protein; test: BLI; fit kinetic; antibody as IgG; antigen as not_told; on the surface: binder; avidity not_told; settings: 30.0 °C; for koff: pH 7.4
EC50 (Human TFPI/His; pH 4.0) [ng/mL],EC50 (Human TFPI/His; pH 4.5) [ng/mL],EC50 (Human TFPI/His; pH 5.0) [ng/mL],EC50 (Human TFPI/His; pH 5.5) [ng/mL],EC50 (Human TFPI/His; pH 6.0) [ng/mL],EC50 (Human TFPI/His; pH 6.5) [ng/mL],EC50 (Human TFPI/His; pH 7.4) [ng/mL],"Koff Ratio (pH6.0/pH7.4) ([1]; pH 6.0, second pH 7.4)",koff [1] [s⁻¹],koff ([1]; second pH 6.0) [s⁻¹],Substance
16.5,4.94,4.83,5,6.1,4.9,4.25,0.9,4.01e-07,3.6e-07,Concizumab
5.87,3.15,3.97,2.18,3.19,3.87,4.01,,,,Marstacimab
